The source of these data is publication PMC12305709, “Functional investigation of the RNA helicase MOV10 with respect to its interplay with factors involved in nonsense-mediated mRNA decay” (The Journal of Biological Chemistry, 2025).

Data set [1] addresses GST-MOV10NTD-UPF1hel (human) (UniProt Q92900).
For data set [2], the target named is T1, UPF1 (Homo sapiens, UniProt Q92900-2 115-914).
T1 sequence: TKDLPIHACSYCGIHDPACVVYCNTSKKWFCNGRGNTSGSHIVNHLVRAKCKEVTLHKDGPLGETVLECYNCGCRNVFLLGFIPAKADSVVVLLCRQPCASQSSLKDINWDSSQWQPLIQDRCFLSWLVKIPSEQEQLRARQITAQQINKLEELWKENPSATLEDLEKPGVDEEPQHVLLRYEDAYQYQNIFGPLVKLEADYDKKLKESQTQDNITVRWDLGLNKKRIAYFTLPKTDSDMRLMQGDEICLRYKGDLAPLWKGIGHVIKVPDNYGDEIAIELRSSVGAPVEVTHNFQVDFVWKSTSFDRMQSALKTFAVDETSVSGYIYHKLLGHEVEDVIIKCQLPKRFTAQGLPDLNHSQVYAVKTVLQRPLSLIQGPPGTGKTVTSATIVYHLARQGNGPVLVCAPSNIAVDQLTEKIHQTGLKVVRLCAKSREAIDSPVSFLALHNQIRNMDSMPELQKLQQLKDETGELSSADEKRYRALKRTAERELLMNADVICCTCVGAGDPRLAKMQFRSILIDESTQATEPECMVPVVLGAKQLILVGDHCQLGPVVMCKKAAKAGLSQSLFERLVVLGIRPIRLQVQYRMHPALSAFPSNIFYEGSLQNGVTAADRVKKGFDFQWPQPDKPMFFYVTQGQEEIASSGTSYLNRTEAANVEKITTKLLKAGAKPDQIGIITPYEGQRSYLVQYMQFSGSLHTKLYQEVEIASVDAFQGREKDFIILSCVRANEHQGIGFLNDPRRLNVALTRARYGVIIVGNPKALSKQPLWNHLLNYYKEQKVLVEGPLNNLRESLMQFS

The target in data set [3] is T2, MOV10NTD-UPF1hel (Chimera 3) (Homo sapiens, UniProt Q9HCE1 1-264+=GSAGAAGSGA+Q92900-2:295-914, internal_change).
T2 sequence: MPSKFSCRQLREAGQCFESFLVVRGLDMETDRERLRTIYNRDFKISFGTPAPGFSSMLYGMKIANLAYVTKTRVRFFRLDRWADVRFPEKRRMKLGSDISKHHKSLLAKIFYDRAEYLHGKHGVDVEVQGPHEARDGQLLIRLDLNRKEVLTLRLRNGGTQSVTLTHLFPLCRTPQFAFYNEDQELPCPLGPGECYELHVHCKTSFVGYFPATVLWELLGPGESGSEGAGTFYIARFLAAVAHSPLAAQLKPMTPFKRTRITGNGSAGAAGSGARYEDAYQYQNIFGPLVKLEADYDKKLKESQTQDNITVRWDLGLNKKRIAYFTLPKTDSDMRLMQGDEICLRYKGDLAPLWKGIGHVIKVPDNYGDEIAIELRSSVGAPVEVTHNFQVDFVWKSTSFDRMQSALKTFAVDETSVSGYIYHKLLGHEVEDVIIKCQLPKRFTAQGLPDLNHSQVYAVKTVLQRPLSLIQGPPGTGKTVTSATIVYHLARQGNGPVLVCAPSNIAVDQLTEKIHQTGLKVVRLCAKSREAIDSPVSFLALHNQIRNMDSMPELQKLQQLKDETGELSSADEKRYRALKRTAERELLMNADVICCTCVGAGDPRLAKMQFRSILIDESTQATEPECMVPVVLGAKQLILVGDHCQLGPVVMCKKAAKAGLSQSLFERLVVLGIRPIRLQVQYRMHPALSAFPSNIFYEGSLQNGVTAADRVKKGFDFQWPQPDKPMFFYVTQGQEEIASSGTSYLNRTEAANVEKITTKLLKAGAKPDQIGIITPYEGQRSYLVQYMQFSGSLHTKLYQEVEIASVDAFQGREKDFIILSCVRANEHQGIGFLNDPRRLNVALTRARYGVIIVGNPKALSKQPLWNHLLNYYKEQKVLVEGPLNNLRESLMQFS
The experiment in a line: fluorescence anisotropy; no nucleotide; 1 mM Mg2+; 20 mM Hepes pH 7.5, 100 mM NaCl, 1 mM MgCl2, 100 ug/ml BSA; 5 nM RNA; 30 min room temperature, read at 25 C. Conditions: protein: recombinant; tags: 6xHis, His-Trx or His-GST fusion in E. coli; label: 5' 6-FAM; single strand.

Data set [4] addresses T1, UPF1. Nature of the data set: fluorescence anisotropy; no nucleotide; affinity comparable to P1; Kd only in figure; 20 mM Hepes pH 7.5, 100 mM NaCl, 1 mM MgCl2, 100 ug/ml BSA; 5 nM RNA; 30 min room temperature, read at 25 C. Conditions: protein: recombinant; tags: 6xHis, His-Trx or His-GST fusion in E. coli; label: 5' 6-FAM; single strand.
A further data set concerns the target T3, Flag-MOV10hel (human, UniProt Q9HCE1 289-1001).
T3 construct: MOV10, human, helicase core, residues 289-1001; also called helicase core of MOV10; source: HEK293, transfected, immunopurified on anti-Flag M2 agarose
T3 sequence (looked up): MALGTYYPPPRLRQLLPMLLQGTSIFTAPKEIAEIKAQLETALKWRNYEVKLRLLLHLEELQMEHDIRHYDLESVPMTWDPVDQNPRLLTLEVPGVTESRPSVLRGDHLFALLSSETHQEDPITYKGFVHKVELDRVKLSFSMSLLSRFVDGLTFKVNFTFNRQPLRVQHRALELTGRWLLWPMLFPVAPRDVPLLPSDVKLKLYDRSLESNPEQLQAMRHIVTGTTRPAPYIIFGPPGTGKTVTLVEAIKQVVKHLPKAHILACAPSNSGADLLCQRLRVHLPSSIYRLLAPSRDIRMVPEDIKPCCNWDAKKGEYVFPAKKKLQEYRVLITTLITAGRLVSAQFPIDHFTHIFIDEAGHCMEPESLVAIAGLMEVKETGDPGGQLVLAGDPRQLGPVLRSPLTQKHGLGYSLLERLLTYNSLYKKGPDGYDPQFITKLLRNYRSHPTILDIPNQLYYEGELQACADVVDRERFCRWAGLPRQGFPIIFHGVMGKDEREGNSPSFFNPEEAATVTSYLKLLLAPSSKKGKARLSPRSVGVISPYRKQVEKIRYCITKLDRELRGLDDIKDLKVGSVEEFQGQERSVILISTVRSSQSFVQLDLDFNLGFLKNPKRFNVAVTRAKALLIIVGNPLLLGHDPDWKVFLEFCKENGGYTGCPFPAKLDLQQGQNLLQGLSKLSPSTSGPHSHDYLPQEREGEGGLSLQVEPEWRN
The experiment in a line: co-IP; as a2, but cell lysates treated with RNase A (60 ug/uL, 10 min, 25 C); SDS-PAGE, Coomassie, densitometry of the UPF2 band. Conditions: both partners purified.

Sequence of GST-MOV10NTD-UPF1hel (human) (Q92900 whole entry, looked up): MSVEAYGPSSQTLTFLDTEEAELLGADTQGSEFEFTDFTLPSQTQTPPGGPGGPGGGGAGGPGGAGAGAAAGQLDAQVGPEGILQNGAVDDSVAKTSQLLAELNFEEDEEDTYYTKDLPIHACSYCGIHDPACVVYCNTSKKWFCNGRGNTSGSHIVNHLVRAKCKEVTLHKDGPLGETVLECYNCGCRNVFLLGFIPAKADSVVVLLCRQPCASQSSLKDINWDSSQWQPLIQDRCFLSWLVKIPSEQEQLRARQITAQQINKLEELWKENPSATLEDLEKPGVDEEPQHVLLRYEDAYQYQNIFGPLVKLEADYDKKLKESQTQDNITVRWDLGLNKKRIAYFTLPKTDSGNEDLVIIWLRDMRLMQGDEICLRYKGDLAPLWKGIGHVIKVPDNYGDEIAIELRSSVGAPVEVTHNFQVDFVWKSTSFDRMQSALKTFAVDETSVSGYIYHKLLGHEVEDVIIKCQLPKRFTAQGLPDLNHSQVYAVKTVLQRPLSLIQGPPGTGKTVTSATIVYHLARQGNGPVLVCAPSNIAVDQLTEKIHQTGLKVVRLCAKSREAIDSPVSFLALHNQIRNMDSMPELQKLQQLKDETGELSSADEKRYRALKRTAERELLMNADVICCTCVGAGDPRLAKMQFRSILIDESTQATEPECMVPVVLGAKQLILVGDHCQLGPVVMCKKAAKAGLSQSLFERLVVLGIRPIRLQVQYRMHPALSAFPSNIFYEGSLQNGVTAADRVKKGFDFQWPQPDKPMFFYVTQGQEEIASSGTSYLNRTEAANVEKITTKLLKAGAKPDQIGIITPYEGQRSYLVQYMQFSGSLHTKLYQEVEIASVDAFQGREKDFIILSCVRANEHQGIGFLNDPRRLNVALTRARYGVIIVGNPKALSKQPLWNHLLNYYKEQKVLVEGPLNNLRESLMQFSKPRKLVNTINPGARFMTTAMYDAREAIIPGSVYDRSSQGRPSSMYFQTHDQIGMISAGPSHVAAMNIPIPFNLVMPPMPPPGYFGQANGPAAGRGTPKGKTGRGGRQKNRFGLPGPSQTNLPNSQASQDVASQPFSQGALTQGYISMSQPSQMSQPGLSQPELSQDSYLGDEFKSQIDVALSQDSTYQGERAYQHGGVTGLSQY

For UPF2s (domain or fragment), in data set [1], the RNA-dependent ATPase activity of MOV10NTD-UPF1hel upon addition of UPF2 (1.5-fold excess), against the chimera alone stood at 1.1 fold and the nucleic acid unwinding activity of MOV10NTD-UPF1hel (300 nM) upon addition of UPF2 (600 nM), against the chimera alone came out at 1.25 fold. Besides, in the data set with UPF1 [2], the RNA-dependent ATPase activity of UPF1 upon addition of UPF2 (1.5-fold excess), against UPF1 alone was 2.4 fold.

In the case of UUUUUUUUUUUU (ssRNA) [U12 RNA], the Kd in data set [3] amounted to 36 nM. The binding result in the data set with UPF1 [4] is on record as “binds”.

B1: UPF2 (near full-length variant, residues 121-1227) (domain or fragment, human, UniProt Q9HAU5 121-1227, looked up)
chain: MKEKEESIQLHQEAWERHHLRKELRSKNQNAPDSRPEENFFSRLDSSLKKNTAFVKKLKTITEQQRDSLSHDFNGLNLSKYIAEAVASIVEAKLKISDVNCAVHLCSLFHQRYADFAPSLLQVWKKHFEARKEEKTPNITKLRTDLRFIAELTIVGIFTDKEGLSLIYEQLKNIINADRESHTHVSVVISFCRHCGDDIAGLVPRKVKSAAEKFNLSFPPSEIISPEKQQPFQNLLKEYFTSLTKHLKRDHRELQNTERQNRRILHSKGELSEDRHKQYEEFAMSYQKLLANSQSLADLLDENMPDLPQDKPTPEEHGPGIDIFTPGKPGEYDLEGGIWEDEDARNFYENLIDLKAFVPAILFKDNEKSCQNKESNKDDTKEAKESKENKEVSSPDDLELELENLEINDDTLELEGGDEAEDLTKKLLDEQEQEDEEASTGSHLKLIVDAFLQQLPNCVNRDLIDKAAMDFCMNMNTKANRKKLVRALFIVPRQRLDLLPFYARLVATLHPCMSDVAEDLCSMLRGDFRFHVRKKDQINIETKNKTVRFIGELTKFKMFTKNDTLHCLKMLLSDFSHHHIEMACTLLETCGRFLFRSPESHLRTSVLLEQMMRKKQAMHLDARYVTMVENAYYYCNPPPAEKTVKKKRPPLQEYVRKLLYKDLSKVTTEKVLRQMRKLPWQDQEVKDYVICCMINIWNVKYNSIHCVANLLAGLVLYQEDVGIHVVDGVLEDIRLGMEVNQPKFNQRRISSAKFLGELYNYRMVESAVIFRTLYSFTSFGVNPDGSPSSLDPPEHLFRIRLVCTILDTCGQYFDRGSSKRKLDCFLVYFQRYVWWKKSLEVWTKDHPFPIDIDYMISDTLELLRPKIKLCNSLEESIRQVQDLEREFLIKLGLVNDKDSKDSMTEGENLEEDEEEEEGGAETEEQSGNESEVNEPEEEEGSDNDDDEGEEEEEENTDYLTDSNKENETDEENTEVMIKGGGLKHVPCVEDEDFIQALDKMMLENLQQRSGESVKVHQLDVAIPLHLKSQLRKGPPLGGGEGEAESADTMPFVMLTRKGNKQQFKILNVPMSSQLAANHWNQQQAEQEERMRMKKLTLDINERQEQED
notes: UPF2, human, residues 121-1227; also called near full-length UPF2
For B1, the “fold less UPF2 coprecipitated than with Flag-MOV10fl and Flag-MOV10NTD” value in the data set with Flag-MOV10hel was roughly 4 fold less.
